Reference: the supplement of paper PMC11502859

Test system: HEK293T
Assay: median enrichment of reporter reads in eGFP-reduced (low/intermediate) vs eGFP-high sorted cells (eGFP-extension fusion abundance) (ratio); higher = stronger loss of eGFP-fusion protein abundance (more destabilising extension)
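Also: lentiviral eGFP-IRES-mCherry reporter pool sorted by FACS 96 h post-transduction, gated on mCherry-high cells, Illumina read counts normalized per million, median across four biological replicates.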

Substance	median enrichment
RSKDNGVFFL [USP44]	1.94
RSLRAGPSAAGSCLNTSLDMARTHRDTGQDQPCLWRQDTTIWPMAVTSCRVQSQTGNHHLRQDLPASFTFLISRALPPILCLG [SLC22A13]	6.14
RSNFSFTVLSCLHRKSQYNFHC [SEC23IP]	2.62
RSNLYVLPKKPKTAFD [C2orf15]	1.27
RSPPHLRPKGRPPPAFLTPALLPQRMWGGGGGPCGPGAQLPGTPVPGQAHLEEESLPPPKYWAALSLPRDHPSLPAMCTIMTN [GPR108]	3.35
RSQLCSGQACSLRTLTTLDLELGTCGHSSSPGCIP [CIITA]	42.6
RSRVFQVPGPWL [MYL4]	1.67
RSSKPTKHQKTHSQTSEHKLHG [PLCB4]	0.191
RSSPTKGPPETPGTISVSSHQTLALFLLLFGDLHCQNYQFQVNFVGEFPPPPSSGSPRSNVPPATFPLWPPAELICLSHRSWC [S100A7A]	7.95
RSSTRDWKDHKLKWRKDPQDT [FCGR3B]	2.73
RSWPPLIYSTSLAPHLH [TNFRSF6B]	8.26
RTCGRPF [CMTM1]	6.49
RTDCRSWEPRHAQASAEGAAGGSARLDPWHLIKKFSLMSMVVGQPSSLSQQAHAASVTSSPAVYTGHCGPEWLGPCRSYTTGC [ZFPM1]	4.58
RTF [KBTBD3]	0.378
RTFATVYFKNKFKLFYHFI [ABCB4]	7.31
RTILELTRFVCL [KRTAP20-1]	7.89
RTPNTIFAIQPQAMGTAFLPRGPGRPQRLLQARTLVHYTPCLGAEILQQKDAIFFVSFFSIFFSKESIFQYVECVSNAMKLKY [NFYC]	15.8
RTQDSE [CD3G]	0.492
RTQTPQSSRLALLRLRGPQKSPPK [TSGA13]	9.36
RTRIPNYISTDAFHFNSS [SAMSN1]	2.43
RTSARPARPFPTST [ISLR2]	0.582
RTSRPTTLRKIEW [HCAR1]	1.94
RVAVWEPLCLAPGYPGPGNLRAGERWGGRHAEVLLVTGLPSLTCTYLHPELSSSPSSCLLLPTCLPSAGAPRPTHSYCTVHFI [SLC36A1]	3.4
RVAYFMQS [PDE5A]	7.9
RVEPTSLPSQQARN [TMEM143]	0.919
RVFGNRISCVAHRPVEKLEPKLSYLEMTFGLDSW [C12orf76]	4.28

Substance	median enrichment
RVFHP [ZSWIM8]	0.463
RVFLGIVFCSCFSVLGMGPGPDTPSPPLWPWPLKLQTQVPILFSPSNAPPNLQPPCLQLPGPGRALVPSLGLIFSLNSTDQLP [JUP]	7.92
RVSSPTRSLARPLALQLLFGGGIPHSFLGTHSHAHCRSINSNPHFRPKIMRPHLVSTFPRPCSKPNPFLPSGSQNLLSPTATT [RNF39]	6.99
RVT [OR2M3]	0.571
RVTFQVVPWAPGSGLWPTFSTFRPICTGCWQGGGRELTGTEGLGTQPFSTCAYRLDLSLLQKPALLCWLAGPVAAG [EIF6]	6.39
RVTKKTMHHKIAQSSAEQFSGDPWTQ [CXCL6]	0.284
RVWGPCQPAAPKPAPLPKQPRPLPLNPGPGRPGRPPVTAAAPALCRAALTCLPSQPLTSRLSLGQREPFGGAACLLWFWEG [FLNA]	3.47
RVYTRTMWYVARPGPGVRLGQPQLSLPLLLIQGVTRHLSLCYFWPQQEPVLGYFCPCSSQPNSGLAHPSPPPKAAEAVGGTGP [KCNJ11]	4.66
RWCWGLGRGGELGCQNSMDMFLWMEGRAFVTFCTYSFCGCFDKGMARELVSIISFILFWL [BCO1]	16
RWTSLFPGPRTLQEMETVQRAVWSHNLNRFSGAPSLLPSLQ [RPRD1A]	6.53
RYC [NCK1]	0.896
RYCSTQPNL [BRPF1]	3.69
RYGWYSLHI [WASHC4]	8.03
RYPGASPVTVTAAPPPRLLSASNHLDSPEESPMETALIRCPAAARGPRSPRVPLKECLGHIRPARSRERAPNARPG [CUX1]	4.54
RYQKKK [STARD6]	0.951
SAASWPWGRGLGCGAVWVLSSSPLPRPSLSNPAWDLGFNAEAMSLSGPASGYSHPGTEKAADGDCLPQPQQHLGLQLLESYHP [LGALS9]	7.86
SAAVTTFTCSSYTQTLQD [PIFO]	1.55
SACPQHLLPPSLGVWIPMELGSAGHNLFLASDLPAIIKWLQIGT [LRRC59]	7.87
SAEGKSGKMSFERCIPKASSGASGKSGPTSARPSSPSPAPPLVSSFIQQNLAGK [NKG7]	0.737
SAGAFVAISL [MSI2]	3.7
SAGPWDTAFSFARLSACRPGGEPGPANESLVYLGCNSLKVQSFGLQSCPGPGSPGHCCSPRPWALVFLQHHTCCPFSISVCVK [MYO1F]	7.3
SAGRGSAPRKCLLCPGAERRCLLGAGLPPCGSCAPWPGPCPAAPVSPSLSPVLVLACSSSQPRESFPTCPRLLSLPRPVVPSW [ARHGAP39]	4.7
SAGSSPLVHSSQGQKGVDMINTESPTSTPTEFPARQCQKHFSREPKPNQEEAREEAGREEGAFPAPRFLKCRSDTCVGVHVLY [SWI5]	1.02
SAHAARRQGGLRRGPHSTRVCFCAAVQTVATALTERDSRAFILKEMFFPRGLLKE [GATA6]	4.62
SAHQRAPSPRIAAPTQPGAPDPPGGLRGNRRREGKGPPSPSRPQGAATDWRAAEGGRARAPRGRTIRAPAPRPVPPQARA [TLX3]	3.75
SAHSPLSQDMDLELRMGLS [IMP4]	0.513

Substance	median enrichment
SAIHL [XKR9]	0.425
SALELLNLCPWGFHPNQCQGPPLPPSK [ACY1]	2
SALGWSQGGTTQAPWAPRERGGIRAGQPPGCRCQEQSQAQVAPAACPVPFPKAPLHIEGRKREFRQLHSPFTPNPVFYSPEKR [STARD8]	3.27
SALTHAHAPLTLKRIHNSLEKHPHVCCRTHSSQLRPIPVTTASPPTPVTTASPPTPVTTASPPTALSPRPMSACPRAQDFLTG [SSH3]	2.09
SAMVSRAPHTRVYTRTMWYVARPGPGVRLGQPQLSLPLLLIQGVTRHLSLCYFWPQQEPVLGYFCPCSSQPNSGLAHPSPPPK [KCNJ11]	5.63
SAPCSTPSPPHPPWAGS [MOSPD3]	4.09
SAPDSASALLTFYPVSLPSPLKAGAPRELPWSSLPGRV [PKMYT1]	8.2
SAPPAACPACPACLSRHTGFRTC [DIS3L2]	16.6
SAPPGTPSTPSIFSTKALVVSTLLPNGHTPKWPVGRESWSTCSGMVWWKRG [CLIC1]	11
SAPYWPAGPPPPAAGQLPNGPFQGLTLHPFSVDFLARAPSGGITDLMTTLALLPCRVQVLSPHFHLPAPRGPFPFMGLPPSDA [PCDH1]	3.42
SAQQSHHPASQAGGRSWGRGLSPVRLLLVKGQGPGQASSSVQVILASVVGGRESKTCSAVSSSGD [PIK3C2B]	2.95
SARSAVSSQWILVNWWRLADTLEKPKPESLLFSLFSCLCSVSLNTTFSAMVCG [MRFAP1]	5.22
SASAEVTEKPYDDVPDFSVGRSRPVA [TCF25]	0.734
SATCPKA [NOL4L]	0.348
SAVKFF [INTS8]	0.917
SCIAGLSSAASTECQAPHSAHPWALLRGPKTQEEERSACPLPPPLQYSLCAVV [SYCN]	10.8
SCLY [GLRX2]	1.01
SCNPTRAHFIIAETSVCIPVITHCNRATN [IDO1]	4.95
SCPPRCSQGNLAPRS [ZIC4]	0.982
SCPSFGNILF [RNASET2]	0.362
SCRDSPAPKYK [MT1G]	0.15
SCRVFSSFFLLQEFVVT [MMP16]	3.12
SCSNGKMALFKPGPPIGQTQQQTRGQGSPVALSIEDRFLGSRRGWRKLKAGE [BTN3A2]	5.24
SCVGHPTRHPSSLRRPVGRQGSRGFALLLSSRVMTLLSISSHYSPCLALRAALLSSQAAPVPSPSTLEWSSSACFPSHRPATT [RAB15]	5.5
SCVKSFSVFSTFIKTQDNSYWREILQM [ZNF708]	11.8
SDARQFLDLGGLKRPPSCLLSFSVSSFLLVFFILFSFHQPSCILALQRDRDRSSAQGFSLPLFIMGGGYHPPSQSCEESGTSF [NOTCH3]	5.68

Substance	median enrichment
SDASTGPSLFCPQP [HSPB8]	0.471
SDDILSPCVAFYLRFPRPAMFSSSPFSLYKNSFSRKTLISIVYMSLWLRH [ACTR3C]	17.1
SDEHG [TMEM242]	1.05
SDFDHLNFL [IL1RL1]	0.533
SDFYLNRETYARTVWTNSRPRHGARRPAGLPPLDGRGKDGRELHCESAARAAGGWDWSSLYCR [DOT1L]	6.88
SDGSAGTHCPPWLPLGGNPNRAPGGNPAPNPPQQGCTVSPLED [ATP13A1]	0.555
SDLVQHGNDSYRLIQQLTLRQVVLFQRPLFLPKPCYELNQMCQVFSGVLSNILFSCMGTSPLQMTMLMDLFIYLFKSLFS [IFNA8]	8.28
SDNL [PDLIM2]	0.365
SDP [CYGB]	0.606
SDPAGSINLDAWTL [MYL5]	0.467
SDPTSPSAFHWLCHGLYKQIIFPLFKIKSPNENLGM [PRSS37]	5.12
SDQAVLEDRQIYTPHTHTTYTTHTRSHPLTHTLHRLLPYSWTFI [BMP4]	9.46
SDQGLGLRVGGLVEHCNPLNK [LRG1]	1.34
SDQLVCL [PPP1R15A]	0.401
SDRTCLRGRRTLAWAQESEAAFLLRGPSGESGPRYHARTLRGPVSCRRVSTFPPNPGLTALRSARRARAETRVGCGELKEPIK [UQCC3]	3.65
SDS [POLE2]	0.445
SDSESN [MCM6]	0.12
SDTLLWSETEDVG [PEX7]	2.59
SDVQDL [ZMPSTE24]	0.181
SDYCKPLPLLPCLCLFSPLTYSISQPPPTCLCDLRTVPSRHWDKGRISCSPPESAWCCPLFPLCAYD [PRPF3]	2.87
SEAPAANTMQARCVSELF [METTL2B]	0.81
SECTLQSWWFLRVGLDRVAAC [BPHL]	7.67
SEELPGRTQDAEPRSLPG [ACAN]	0.794
SEEPQDHTHSPYPPQDYRTFWHTLYRVLGFTPQNDPTMSTHHQNPANGPPLPPSPDAEMVMGSWRVGSEMKGTPQWAAGPIFP [SLC13A5]	3.6
SEEQPSFVPVVFIKYPLHP [WDR54]	6.65
